The values that follow come from IntAct's records for PubMed 23468526.

First the molecules themselves.
B1: Moesin/ezrin/radixin homolog 1 (Drosophila melanogaster (Fruit fly)), P46150 (parent)
chain: MSPKALNVRVTTMDAELEFAIQSTTTGKQLFDQVVKTIGLREVWFFGLQYTDSKGDSTWIKLYKKVMNQDVKKENPLQFRFRAKFYPEDVAEELIQDITLRLFYLQVKNAILTDEIYCPPETSVLLASYAVQARHGDHNKTTHTAGFLANDRLLPQRVIDQHKMSKDEWEQSIMTWWQEHRSMLREDAMMEYLKIAQDLEMYGVNYFEIRNKKGTDLWLGVDALGLNIYEQDDRLTPKIGFPWSEIRNISFSEKKFIIKPIDKKAPDFMFFAPRVRINKRILALCMGNHELYMRRRKPDTIDVQQMKAQAREEKNAKQQEREKLQLALAARERAEKKQQEYEDRLKQMQEDMERSQRDLLEAQDMIRRLEEQLKQLQAAKDELELRQKELQAMLQRLEEAKNMEAVEKLKLEEEIMAKQMEVQRIQDEVNAKDEETKRLQDEVEDARRKQVIAAEAAAALLAASTTPQHHHVAEDENENEEELTNGDAGGDVSRDLDTDEHIKDPIEDRRTLAERNERLHDQLKALKQDLAQSRDETKETANDKIHRENVRQGRDKYKTLREIRKGNTKRRVDQFENM
partner: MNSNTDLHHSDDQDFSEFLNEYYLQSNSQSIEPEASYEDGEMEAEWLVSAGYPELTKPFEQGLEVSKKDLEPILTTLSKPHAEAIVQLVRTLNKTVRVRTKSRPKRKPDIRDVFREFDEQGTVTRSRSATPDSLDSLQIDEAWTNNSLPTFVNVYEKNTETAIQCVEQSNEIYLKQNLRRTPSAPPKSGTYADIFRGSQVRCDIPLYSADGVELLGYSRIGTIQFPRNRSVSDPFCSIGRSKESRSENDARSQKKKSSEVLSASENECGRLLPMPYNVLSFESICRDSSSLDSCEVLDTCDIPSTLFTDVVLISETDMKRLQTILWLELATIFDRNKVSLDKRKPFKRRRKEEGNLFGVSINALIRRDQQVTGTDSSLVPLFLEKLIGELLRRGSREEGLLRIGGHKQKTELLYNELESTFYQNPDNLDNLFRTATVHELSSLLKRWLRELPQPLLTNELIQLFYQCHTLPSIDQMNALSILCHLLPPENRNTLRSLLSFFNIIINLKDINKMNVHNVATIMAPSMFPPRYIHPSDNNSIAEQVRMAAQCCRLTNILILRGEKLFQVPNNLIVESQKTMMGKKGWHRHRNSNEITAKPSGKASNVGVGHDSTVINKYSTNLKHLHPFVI

The variants in the test derive from B1. The note with it: with conu_drome conu.
For T559D, the “effect of a mutation on the interaction” value was “increasing interaction strength”.
